# IntAct's records for PubMed 19853560
# B1: Phosphatidylinositol 3,4,5-trisphosphate 3-phosphatase and dual-specificity protein phosphatase daf-18 (Caenorhabditis elegans), G5EE01 (parent)
# chain: MVTPPPDVPSTSTRSMARDLQENPNRQPGEPRVSEPYHNSIVERIRHIFRTAVSSNRCRTEYQNIDLDCAYITDRIIAIGYPATGIEANFRNSKVQTQQFLTRRHGKGNVKVFNLRGGYYYDADNFDGNVICFDMTDHHPPSLELMAPFCREAKEWLEADDKHVIAVHCKAGKGRTGVMICALLIYINFYPSPRQILDYYSIIRTKNNKGVTIPSQRRYIYYYHKLRERELNYLPLRMQLIGVYVERPPKTWGGGSKIKVEVGNGSTILFKPDPLIISKSNHQRERATWLNNCDTPNEFDTGEQKYHGFVSKRAYCFMVPEDAPVFVEGDVRIDIREIGFLKKFSDGKIGHVWFNTMFACDGGLNGGHFEYVDKTQPYIGDDTSIGRKNGMRRNETPMRKIDPETGNEFESPWQIVNPPGLEKHITEEQAMENYTNYGMIPPRYTISKILHEKHEKGIVKDDYNDRKLPMGDKSYTESGKSGDIRGVGGPFEIPYKAEEHVLTFPVYEMDRALKSKDLNNGMKLHVVLRCVDTRDSKMMEKSEVFGNLAFHNESTRRLQALTQMNPKWRPEPCAFGSKGAEMHYPPSVRYSSNDGKYNGACSENLVSDFFEHRNIAVLNRYCRYFYKQRSTSRSRYPRKFRYCPLIKKHFYIPADTDDVDENGQPFFHSPEHYIKEQEKIDAEKAAKGIENTGPSTSGSSAPGTIKKTEASQSDKVKPATEDELPPARLPDNVRRFPVVGVDFENPEEESCEHKTVESIAGFEPLEHLFHESYHPNTAGNMLRQDYHTDSEVKIAEQEAKAFVDQLLNGQGVLQEFMKQFKVPSDNSFADYVTGQAEVFKAQIALLEQSEDFQRVQANAEEVDLEHTLGEAFERFGHVVEESNGSSKNPKALKTREQMVKETGKDTQKTRNHVLLHLEANHRVQIERRETCPELHPEDKIPRIAHFSENSFSDSNFDQAIYL
# partner: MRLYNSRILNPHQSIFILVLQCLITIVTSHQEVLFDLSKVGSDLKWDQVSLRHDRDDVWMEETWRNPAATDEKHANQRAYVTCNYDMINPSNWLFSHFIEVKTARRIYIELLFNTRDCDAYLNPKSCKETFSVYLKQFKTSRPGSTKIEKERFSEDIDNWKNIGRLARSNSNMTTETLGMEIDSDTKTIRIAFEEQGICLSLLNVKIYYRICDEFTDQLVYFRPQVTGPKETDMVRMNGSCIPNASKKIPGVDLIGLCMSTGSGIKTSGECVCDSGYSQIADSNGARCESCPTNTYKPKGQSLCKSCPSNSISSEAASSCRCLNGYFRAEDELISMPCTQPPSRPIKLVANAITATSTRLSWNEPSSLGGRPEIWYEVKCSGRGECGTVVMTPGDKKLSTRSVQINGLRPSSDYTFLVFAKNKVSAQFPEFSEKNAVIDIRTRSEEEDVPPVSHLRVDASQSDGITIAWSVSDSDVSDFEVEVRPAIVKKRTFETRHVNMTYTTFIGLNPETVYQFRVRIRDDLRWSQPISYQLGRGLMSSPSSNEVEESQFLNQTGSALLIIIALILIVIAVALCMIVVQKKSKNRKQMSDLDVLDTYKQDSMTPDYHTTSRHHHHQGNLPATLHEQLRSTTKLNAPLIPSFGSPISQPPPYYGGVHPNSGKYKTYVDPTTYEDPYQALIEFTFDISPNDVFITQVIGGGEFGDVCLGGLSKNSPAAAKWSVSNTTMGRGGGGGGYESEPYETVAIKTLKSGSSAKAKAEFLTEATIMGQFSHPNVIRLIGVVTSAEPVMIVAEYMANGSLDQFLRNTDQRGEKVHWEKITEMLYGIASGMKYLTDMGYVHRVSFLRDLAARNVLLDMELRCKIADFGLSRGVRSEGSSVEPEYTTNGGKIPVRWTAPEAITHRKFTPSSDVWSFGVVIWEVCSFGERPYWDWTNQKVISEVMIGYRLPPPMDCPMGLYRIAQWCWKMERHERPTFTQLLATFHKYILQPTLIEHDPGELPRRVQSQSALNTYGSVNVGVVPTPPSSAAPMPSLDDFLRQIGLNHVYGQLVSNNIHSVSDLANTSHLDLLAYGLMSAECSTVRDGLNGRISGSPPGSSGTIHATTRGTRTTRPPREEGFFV
# Variants of: B1
# Settings: with vab1_caeel vab-1, O61460
row,effect of a mutation on the interaction,Variant
1,increasing interaction,D137A
